Measured values from PMC7865074.
Read-outs that look alike come from different tables or passages of the source.

Key:
[1] = target: full-length (FL) NS5 protein (wt PBM) of West Nile virus (West Nile virus); assay: split reporter (BiFC, NanoBiT); N2H split-NanoLuc in HEK-293T cells; full-length NS5 with 257 single PDZ domains; read-out NLR with NS5 minus NLR with NS5ΔPBM, three experiments; hits > 0.25
[2] = target: full-length (FL) NS5 protein (wt PBM) of West Nile virus (West Nile virus); assay: split reporter (BiFC, NanoBiT); N2H split-NanoLuc in HEK-293T cells; full-length NS5 with 91 full-length human PDZ proteins (ORFs); read-out NLR; hits NLR > 1.35
[3] = target: biotinylated WNV NS5 PBM peptide (West Nile virus); assay: holdup assay (automated high-throughput chromatography); biotinylated NS5 PBM peptide as bait against 259 human PDZ domains expressed in E. coli; read-out binding intensity (BI), mean of replicates; BI threshold 0.2 for a significant interaction
[4] = target: full-length (FL) NS5 protein (wt PBM) of West Nile virus (West Nile virus); assay: split reporter (BiFC, NanoBiT); N2H split-NanoLuc in HEK-293T cells; full-length NS5 with 91 full-length human PDZ proteins (ORFs); read-out NLR; hits NLR > 1.35; remark: listed apart in the source

Sequence of Serine protease HTRA1, PDZ domain (N2H construct) (Q92743 365-467): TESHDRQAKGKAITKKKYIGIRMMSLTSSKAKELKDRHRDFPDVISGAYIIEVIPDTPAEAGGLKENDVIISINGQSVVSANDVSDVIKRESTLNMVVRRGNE
Sequence of Microtubule-associated serine/threonine-protein kinase 2, PDZ domain (N2H construct) (Q6P0Q8 1104-1192): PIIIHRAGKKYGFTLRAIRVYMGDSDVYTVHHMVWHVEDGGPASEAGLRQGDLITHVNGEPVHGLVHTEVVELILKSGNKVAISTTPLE
Sequence of Microtubule-associated serine/threonine-protein kinase 1, PDZ domain (N2H construct) (Q9Y2H9 967-1055): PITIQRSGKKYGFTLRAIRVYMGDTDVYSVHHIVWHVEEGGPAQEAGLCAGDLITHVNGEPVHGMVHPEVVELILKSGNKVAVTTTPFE
Sequence of Protein scribble homolog, PDZ domain 4 (N2H construct) (Q14160 1100-1194): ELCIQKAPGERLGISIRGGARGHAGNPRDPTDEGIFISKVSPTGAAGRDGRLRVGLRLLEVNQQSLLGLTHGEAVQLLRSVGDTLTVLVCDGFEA
Sequence of Connector enhancer of kinase suppressor of ras 3, full-length protein (ORF, N2H construct) (Q6P9H4 whole entry): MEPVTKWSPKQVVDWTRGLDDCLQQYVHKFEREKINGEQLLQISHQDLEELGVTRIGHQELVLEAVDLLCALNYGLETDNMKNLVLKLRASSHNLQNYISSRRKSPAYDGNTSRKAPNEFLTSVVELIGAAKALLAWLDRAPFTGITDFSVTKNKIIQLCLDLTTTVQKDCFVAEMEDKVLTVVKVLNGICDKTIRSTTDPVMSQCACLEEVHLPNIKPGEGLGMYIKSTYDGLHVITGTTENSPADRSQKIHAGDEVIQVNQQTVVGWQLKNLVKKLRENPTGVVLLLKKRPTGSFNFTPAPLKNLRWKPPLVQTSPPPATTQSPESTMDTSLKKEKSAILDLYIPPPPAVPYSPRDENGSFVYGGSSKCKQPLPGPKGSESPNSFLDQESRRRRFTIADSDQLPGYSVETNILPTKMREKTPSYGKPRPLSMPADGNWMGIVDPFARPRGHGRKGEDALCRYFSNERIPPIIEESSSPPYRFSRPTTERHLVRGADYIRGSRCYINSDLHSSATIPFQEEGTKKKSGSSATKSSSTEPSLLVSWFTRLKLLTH
Sequence of Partitioning defective 3 homolog, PDZ domain 1 (N2H construct) (Q8TEW0 271-359): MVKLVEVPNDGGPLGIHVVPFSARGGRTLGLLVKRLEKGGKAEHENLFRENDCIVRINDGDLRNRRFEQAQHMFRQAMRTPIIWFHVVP
Sequence of Connector enhancer of kinase suppressor of ras 3, PDZ domain (N2H construct) (Q6P9H4 211-293): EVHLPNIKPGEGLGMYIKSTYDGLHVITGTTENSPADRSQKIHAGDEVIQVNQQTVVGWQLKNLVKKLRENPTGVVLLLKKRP
Sequence of Protein scribble homolog, PDZ domain 1 (N2H construct) (Q14160 728-815): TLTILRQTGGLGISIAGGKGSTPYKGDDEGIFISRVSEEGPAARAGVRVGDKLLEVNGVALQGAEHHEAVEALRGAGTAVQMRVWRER
Sequence of FERM and PDZ domain-containing protein 4, PDZ domain (N2H construct) (Q14CM0 78-155): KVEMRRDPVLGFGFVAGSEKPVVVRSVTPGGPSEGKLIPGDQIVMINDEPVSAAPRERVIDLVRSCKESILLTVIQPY

Question: How did the NLR(NS5) - NLR(NS5ΔPBM) [1] turn out when “Connector enhancer of kinase suppressor of ras 3, PDZ domain (N2H construct) (from UniProt Q6P9H4 211-293) (domain or fragment)” was run?
Answer: The NLR(NS5) - NLR(NS5ΔPBM) was 6.27.

Question: Which NLR [2] does the source give for “Connector enhancer of kinase suppressor of ras 3, full-length protein (ORF, N2H construct) (from UniProt Q6P9H4 1-555) (natural protein)” here?
Answer: Its NLR is 1.91.

Question: “FERM and PDZ domain-containing protein 4, PDZ domain (N2H construct) (from UniProt Q14CM0 78-155) (domain or fragment)” was tested. Which NLR(NS5) - NLR(NS5ΔPBM) [1] did it give?
Answer: Its NLR(NS5) - NLR(NS5ΔPBM) is under 0.25.

Question: How did the NLR(NS5) - NLR(NS5ΔPBM) [1] turn out when “Golgi reassembly-stacking protein 2, PDZ domain (N2H construct) (domain or fragment)” was run?
Answer: The NLR(NS5) - NLR(NS5ΔPBM) was 1.32.

Question: How did the BI (holdup binding intensity) [3] turn out when “Golgi reassembly-stacking protein 2, PDZ domain (holdup construct) (domain or fragment)” was run?
Answer: Its BI (holdup binding intensity) is under 0.15.

Question: “Microtubule-associated serine/threonine-protein kinase 1, PDZ domain (N2H construct) (from UniProt Q9Y2H9 967-1055) (domain or fragment)” was tested. Which NLR(NS5) - NLR(NS5ΔPBM) [1] did it give?
Answer: Its NLR(NS5) - NLR(NS5ΔPBM) is under 0.25.

Question: “Microtubule-associated serine/threonine-protein kinase 2, PDZ domain (N2H construct) (from UniProt Q6P0Q8 1104-1192) (domain or fragment)” was tested. Which NLR(NS5) - NLR(NS5ΔPBM) [1] did it give?
Answer: Its NLR(NS5) - NLR(NS5ΔPBM) is 0.87.

Question: Which NLR(NS5) - NLR(NS5ΔPBM) [1] does the source give for “Partitioning defective 3 homolog, PDZ domain 1 (N2H construct) (from UniProt Q8TEW0 271-359) (domain or fragment)” here?
Answer: Its NLR(NS5) - NLR(NS5ΔPBM) is 1.24.

Question: For “Protein scribble homolog, PDZ domain 1 (N2H construct) (from UniProt Q14160 728-815) (domain or fragment)”, which NLR(NS5) - NLR(NS5ΔPBM) [1] is on record?
Answer: The NLR(NS5) - NLR(NS5ΔPBM) was 0.76.

Question: With “Protein scribble homolog, PDZ domain 4 (N2H construct) (from UniProt Q14160 1100-1194) (domain or fragment)” as the substance, how does the NLR(NS5) - NLR(NS5ΔPBM) [1] read?
Answer: The NLR(NS5) - NLR(NS5ΔPBM) was 0.56.

Question: How did the NLR [4] turn out when “Rho GTPase-activating protein 21, full-length protein (ORF, N2H construct) (from UniProt Q5T5U3 1-1958) (natural protein)” was run?
Answer: The NLR was 4.41.

Question: And the NLR [2]?
Answer: Its NLR is 4.4.

Question: With “SH3 and multiple ankyrin repeat domains protein 2, full-length protein (ORF, N2H construct) (from UniProt Q9UPX8 1-1849) (natural protein)” as the substance, how does the NLR [2] read?
Answer: The NLR was 4.38.

Question: “Serine protease HTRA1, PDZ domain (N2H construct) (from UniProt Q92743 365-467) (domain or fragment)” was tested. Which NLR(NS5) - NLR(NS5ΔPBM) [1] did it give?
Answer: The NLR(NS5) - NLR(NS5ΔPBM) was under 0.25.
